From patent publication US20210179715A1 (published 2021)
Like-named read-outs stand apart in the source and are kept apart here. Each block holds one binder with its values, some of them ahead of it.

Legend:
human Ly6G6D polypeptide = target: T1, human Ly6G6D polypeptide (UniProt O95868 20-104); test: BIAcore
T1 chain: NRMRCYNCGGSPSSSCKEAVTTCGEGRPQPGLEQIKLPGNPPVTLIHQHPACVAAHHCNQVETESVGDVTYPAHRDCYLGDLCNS

human LY6G6D-Fc [1] = target: T2, human LY6G6D-Fc (UniProt O95868 20-104); test: BIAcore; 37 C
T2 chain: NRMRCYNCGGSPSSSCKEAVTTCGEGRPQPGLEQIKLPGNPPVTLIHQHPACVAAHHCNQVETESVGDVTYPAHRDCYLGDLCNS

Chimeric 1G4 = test: Biacore
GNT = test: BIAcore
QNV = test: BIAcore
Parental NNT = test: BIAcore
ANT = test: BIAcore
SNT = test: BIAcore
SNA = test: BIAcore
SNV = test: BIAcore
QNT = test: BIAcore
NNV = test: BIAcore
NNA = test: BIAcore
IS = test: BIAcore
SA = test: BIAcore
SS = test: BIAcore
[2] = target: hu.20A12.IA.QNV.H12(V3-23).L2(K1-5); test: BIAcore; 37 C
[3] = target: hu.20A12.IA.GNT.H12(V3-23).L2(K1-5); test: BIAcore; 37 C
[4] = target: hu.20A12.IA.SNA.H12(V3-23).L2(K1-5); test: BIAcore; 37 C
4H7 = test: BIAcore; 37 C
human LY6G6D-Fc [5] = target: T2, human LY6G6D-Fc; test: BIAcore; 37 C

B5: 1G4 Fab (Fab, V domains shown)
VH: EVQLVQSGAEVKKPGASVKVSCKASGYTFTTYVMHWVRQAPGQGLEWMGYINPYNDGTKYNEKFKGRVTMTRDTSISTAYMELSRLRSDDTAVYYCGRRNFDYWGQGTLVTVSS
VL: DIVMTQSPDSLAVSLGERATINCKSSQSLLLSGNQENYLAWHQQKPGQPPKTLITWASTRISGVPDRFSGSGSGTDFTLTISSLQAEDVAVYYCQQSYSAPYTFGGGTKVEIKR
- Kd (human LY6G6D-Fc [1]): 1.45 nM

B7: hu6E10.K1-5.V3-53 (L1H1) (antibody, V domains shown)
VH: EQQLVESGGGLIQPGGSLRLSCAVSGLSLSTNSINWVRQAPGKGLEWIGYIYHGDGIADYASWAKGRFTISKDSSKNTVYLQMNSLRAEDTAVYFCASGAGYSLFTLWGPGTLVTVSS
VL: DAQLTQSPSTLSASVGDRVTITCQSSESVWHNNWLAWFQQKPGKRPKLLIYGASTLASGVPSRFSGSGSGTEFTLTISSLQPDDFATYYCAGGYSSSDAHVFGGGTKVEIK
- Kd (human Ly6G6D polypeptide): 1.63 nM

B9: hu6E10.K1-5.V3-48 (antibody, V domains shown)
VH: EQQLVESGGGLVQPGGSLRLSCAVSGLSLSTNSINWVRQAPGKGLEWIGYIYHGDGIADYASWAKGRFTISKDSAKNSVYLQMNSLRAEDTAVYFCASGAGYSLFTLWGPGTLVTVSS
VL: DAQLTQSPSTLSASVGDRVTITCQSSESVWHNNWLAWFQQKPGKRPKLLIYGASTLASGVPSRFSGSGSGTEFTLTISSLQPDDFATYYCAGGYSSSDAHVFGGGTKVEIK
- Kd (human Ly6G6D polypeptide): 1.03 nM

B11: LY6G6D (other)
chain: NRMRCYNCGGSPSSSCKEAVTTCGEGRPQPGLEQIKLPGNPPVTLIHQHPACVAAHHCNQVETESVGDVTYPAHRDCYLGDLCNS
- Kd (Chimeric 1G4): 2.7 nM
- Kd (GNT): 0.34 nM
- Kd (QNV): 0.22 nM
- Kd (Parental NNT): 0.43 nM
- Kd (ANT): 0.26 nM
- Kd (SNT): 0.25 nM
- Kd (SNA): 0.27 nM
- Kd (SNV): 0.23 nM
- Kd (QNT): 0.28 nM
- Kd (NNV): 0.22 nM
- Kd (NNA): 0.26 nM

B12: Ly6G6D (other)
chain: NRMRCYNCGGSPSSSCKEAVTTCGEGRPQPGLEQIKLPGNPPVTLIHQHPACVAAHHCNQVETESVGDVTYPAHRDCYLGDLCNS
- Kd (IS): 1.26 nM
- Kd (SA): 2.74 nM
- Kd (SS): 2.7 nM

B13: Ly6G6D (Fc fusion)
chain: NRMRCYNCGGSPSSSCKEAVTTCGEGRPQPGLEQIKLPGNPPVTLIHQHPACVAAHHCNQVETESVGDVTYPAHRDCYLGDLCNS
- Kd [2]: 0.0335 nM
- Kd [3]: 0.122 nM
- Kd [4]: 0.105 nM
- Kd (4H7): 0.36 nM

The remaining lines, values ahead:

- Kd (human Ly6G6D polypeptide): 1.3 nM
B1: hu6E10.K3-20.V3-53 (L1H1) (antibody, V domains shown)
VH: EQQLVESGGGLIQPGGSLRLSCAVSGLSLSTNSINWVRQAPGKGLEWIGYIYHGDGIADYASWAKGRFTISKDSSKNTVYLQMNSLRAEDTAVYFCASGAGYSLFTLWGPGTLVTVSS
VL: EAVLTQSPGTLSLSPGERATLSCQSSESVWHNNWLAWFQQKPGQRPRLLIYGASTLASGVPDRFSGSGSGTDFTLTISRLEPEDFAVYYCAGGYSSSDAHVFGGGTKVEIK

- Kd (human Ly6G6D polypeptide): 1.66 nM
B2: hu6E10.K4-1.V3-53 (antibody, V domains shown)
VH: EQQLVESGGGLIQPGGSLRLSCAVSGLSLSTNSINWVRQAPGKGLEWIGYIYHGDGIADYASWAKGRFTISKDSSKNTVYLQMNSLRAEDTAVYFCASGAGYSLFTLWGPGTLVTVSS
VL: DAVLTQSPDSLAVSLGERATINCQSSESVWHNNWLAWFQQKPGQRPKLLIYGASTLASGVPDRFSGSGSGTDFTLTISSLQAEDVAVYYCAGGYSSSDAHVFGGGTKVEIK

- Kd (human Ly6G6D polypeptide): 1.41 nM
B3: hu6E10.K4-1.V3-48 (antibody, V domains shown)
VH: EQQLVESGGGLVQPGGSLRLSCAVSGLSLSTNSINWVRQAPGKGLEWIGYIYHGDGIADYASWAKGRFTISKDSAKNSVYLQMNSLRAEDTAVYFCASGAGYSLFTLWGPGTLVTVSS
VL: DAVLTQSPDSLAVSLGERATINCQSSESVWHNNWLAWFQQKPGQRPKLLIYGASTLASGVPDRFSGSGSGTDFTLTISSLQAEDVAVYYCAGGYSSSDAHVFGGGTKVEIK

- Kd (human Ly6G6D polypeptide): 1.3 nM
B4: hu6E10.K3-20.V3-48 (antibody, V domains shown)
VH: EQQLVESGGGLVQPGGSLRLSCAVSGLSLSTNSINWVRQAPGKGLEWIGYIYHGDGIADYASWAKGRFTISKDSAKNSVYLQMNSLRAEDTAVYFCASGAGYSLFTLWGPGTLVTVSS
VL: EAVLTQSPGTLSLSPGERATLSCQSSESVWHNNWLAWFQQKPGQRPRLLIYGASTLASGVPDRFSGSGSGTDFTLTISRLEPEDFAVYYCAGGYSSSDAHVFGGGTKVEIK

- Kd (human Ly6G6D polypeptide): 3.34 nM
B6: hu6E10.K1-5.V4-4 (antibody, V domains shown)
VH: EQQLQESGPGLVKPPGTLSLTCAVSGLSLSTNSINWVRQPPGKGLEWIGYIYHGDGIADYASWAKGRFTISKDSSKTQVSLKLSSVTAADTAVYFCASGAGYSLFTLWGPGTLVTVSS
VL: DAQLTQSPSTLSASVGDRVTITCQSSESVWHNNWLAWFQQKPGKRPKLLIYGASTLASGVPSRFSGSGSGTEFTLTISSLQPDDFATYYCAGGYSSSDAHVFGGGTKVEIK

- Kd (human Ly6G6D polypeptide): 3.6 nM
B8: hu6E10.K4-1.V4-4 (antibody, V domains shown)
VH: EQQLQESGPGLVKPPGTLSLTCAVSGLSLSTNSINWVRQPPGKGLEWIGYIYHGDGIADYASWAKGRFTISKDSSKTQVSLKLSSVTAADTAVYFCASGAGYSLFTLWGPGTLVTVSS
VL: DAVLTQSPDSLAVSLGERATINCQSSESVWHNNWLAWFQQKPGQRPKLLIYGASTLASGVPDRFSGSGSGTDFTLTISSLQAEDVAVYYCAGGYSSSDAHVFGGGTKVEIK

- Kd (human Ly6G6D polypeptide): 3.11 nM
B10: hu6E10.K3-20.V4-4 (antibody, V domains shown)
VH: EQQLQESGPGLVKPPGTLSLTCAVSGLSLSTNSINWVRQPPGKGLEWIGYIYHGDGIADYASWAKGRFTISKDSSKTQVSLKLSSVTAADTAVYFCASGAGYSLFTLWGPGTLVTVSS
VL: EAVLTQSPGTLSLSPGERATLSCQSSESVWHNNWLAWFQQKPGQRPRLLIYGASTLASGVPDRFSGSGSGTDFTLTISRLEPEDFAVYYCAGGYSSSDAHVFGGGTKVEIK

- Kd (human LY6G6D-Fc [5]): 0.704 nM
B14: rb20A12.IA (C35I-C50A) chimeric Fab (Fab, V domains shown)
VH: QQQLEESGGDLVKPGASLTLTCTASGFDFVNNAMIWVRQAPGKGLEWIAALSFADNTAYYATWASGRFTISKISSTTVTLRMTSLTGADTATYFCMRGDLWGPGTLVTVSS
VL: DIVMTQTPSSVSAAVGGTVTINCQASESITRYLNWYQQKPGQPPKLLIYDASKLPSGVPSRFKGSGSGTQFTLTTSDLECADAATYYCQSTSFRGRSYNNTFGGGTEVVVK
